In paper PMC314469, “Protein Interaction Networks by Proteome Peptide Scanning” (PLoS Biology, 2004):

B1: 112-125 Cell cycle-dependent filament between nuclei (peptide)
chain: IIFPTSPTKLTFSN
B2: 71-84 Nuclear protein that binds to T-rich strand of core consensus sequence of autonomously replicating sequence (peptide)
chain: GVYPSRPEKTYDYS
B3: 1426-1439 Hypothetical ORF (peptide)
chain: GYDPTDPNRPKVTK
B4: 170-183 Possible RNA binding protein. Homolog of Whi3. (peptide)
chain: IFGPSFPFRSHIDV
B5: 84-97 chitin synthase 2 (peptide)
chain: HNSPVAPNRYAANL
B6: 61-74 (putative) involved in DNA replication (peptide)
chain: IEVPQSPTKNRVKV
B7: 207-220 34kDa subunit of the tetrameric tRNA splicing endonuclease (peptide)
chain: IAYPGDPLRFHSHL
B8: 219-232 component of cytoplasmic chaperonin complex (peptide)
chain: GRHPDMPTRVKNAY
B9: 66-79 vacuolar alpha mannosidase (peptide)
chain: GSSPVSPDKRPSWK
B10: 256-269 mitochondrial ribosomal protein L2 of the large subunit (peptide)
chain: GITPVGPGKFSRSA
B11: 653-666 heat shock transcription factor (peptide)
chain: ILSPGYPNKSFNNK
B12: 1268-1281 protein kinase (peptide)
chain: GRIPQLPNRDEMTA
B13: 476-489 Mitochondrial outer membrane protein involved in mitochondrial morphology and inheritance (peptide)
chain: GNIPVFPAKFGIQF
B14: 32-45 Hypothetical ORF (peptide)
chain: IAYPFYPFKKLGRQ
B15: 440-453 protoporphyrinogen oxidase (peptide)
chain: HGVPVVPSREVTIN
B16: 171-184 " 1,4-glucan-6-(1,4-glucano)-transferase" (peptide)
chain: FWNPENPYKFVHPR
B17: 91-104 phosphatidylserine decarboxylase located in vacuole or Golgi (peptide)
chain: GAPPTTPSRPRTTT
B18: 192-205 " contains 3 SH3 domains, interacts with Bee1p" (peptide)
chain: GPPPAMPARPTATT
B19: 1469-1482 Hypothetical ORF (peptide)
chain: GYDPTDPSRPRINE
B20: 264-277 AP endonuclease (peptide)
chain: IINPDTPHRRIFNQ
B21: 172-185 homologous to Ssf2p;possibly involved in mating (peptide)
chain: IFPPLNPARTSLNS
B22: 496-509 Hypothetical ORF (peptide)
chain: IFDPQDPYRRAQQF
B23: 340-353 isopropylmalate isomerase (peptide)
chain: GLEPNTPLKSIKVD
B24: 193-206 subunit of a cytoplasmic histone acetyltransferase (peptide)
chain: GGDPTKPVRTWNDL
B25: 316-329 " Yeast homologue of mammalian GRASP proteins, also localised to the Golgi apparatus." (peptide)
chain: FTAPPVPTKKKSKN
B26: 44-57 Hexose transporter (peptide)
chain: GNTPDAPKRGFLGY
B27: 509-522 Weak similarity to Pta1p (pre-tRNA processing protein) (peptide)
chain: IIFPYDPLKLGTHA
B28: 631-644 dual specificity protein phosphatase (peptide)
chain: IAHPVRPHRAITMT
B29: 138-151 Hypothetical ORF (peptide)
chain: ILKPDIPLRNMLLR
B30: 64-77 Transcription factor (fork head domain) (peptide)
chain: HSSPIAPSKAKRQR
B31: 704-717 vitamin B12-(cobalamin)-independent isozyme of methionine synthase (also called N5-methyltetrahydrofolate homocysteine m (peptide)
chain: IHSPRIPSKDEFIA
B32: 307-320 " Twinfilin A, an actin monomer sequestering protein" (peptide)
chain: GSNPDLPNKSNLKF
B33: 310-323 H+-biotin symporter (peptide)
chain: FVIPGVPSKSYSLF
B34: 379-392 Hypothetical ORF (peptide)
chain: GGQPPVPVRMQPQP
B35: 171-184 Hypothetical ORF (peptide)
chain: IIIPPIPSKHSLLK
B36: 171-184 protein required for Clb2 and Ase1 degradation (peptide)
chain: HSTPVTPRRLFTSQ
B37: 144-157 nuclear shuttling protein with an RNA recognition motif (peptide)
chain: IFGPFGPMKEVKIL
B38: 459-472 Hypothetical ORF (peptide)
chain: ILLPPLPERAYIMD
B39: 393-406 Actin binding protein (peptide)
chain: FSKPQEPVKAEEAE
B40: 377-390 lysyl-tRNA synthetase (peptide)
chain: HPDPADPAKELELN
B41: 241-254 RNA polymerase II mediator subunit (peptide)
chain: IAAPKKPRKPRQTK
B42: 124-137 Unknown (peptide)
chain: GAKPKIPSKLYQSV

What follows are binders tested against Sho1 SH3 (SHO1_YEAST), P40073 (assay: SPOT array).
Chain of Sho1 SH3 (SHO1_YEAST), P40073 (P40073 295-366): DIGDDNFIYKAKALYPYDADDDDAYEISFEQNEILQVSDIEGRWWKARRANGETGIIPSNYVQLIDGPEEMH

Binder | normalised SPOT signal, Boehringer light units (BLU); mean over the file's lines of this peptide
B1 | 125
B2 | 109
B3 | 158
B4 | 182
B5 | 103
B6 | 141
B7 | 174
B8 | 189
B9 | 60.3
B10 | 156
B11 | 129
B12 | 39.3
B13 | 213
B14 | 59.4
B15 | 139
B16 | 129
B17 | 29.2
B18 | 89.9
B19 | 119
B20 | 174
B21 | 87.7

Binder | normalised SPOT signal, Boehringer light units (BLU); mean over the file's lines of this peptide
B22 | 48.8
B23 | 139
B24 | 112
B25 | 4360
B26 | 45.5
B27 | 113
B28 | 112
B29 | 159
B30 | 201
B31 | 94.7
B32 | 140
B33 | 284
B34 | 120
B35 | 352
B36 | 240
B37 | 250
B38 | 242
B39 | 257
B40 | 202
B41 | 327
B42 | 145
